Assay results as given in publication PMC7924340 (Toxins, 2021).

B1: α-bungarotoxin from krait Bungarus multicinctus venom (natural protein)
chain: IVCHTTATSPISAVTCPPGENLCYRKMWCDAFCSSRGKVVELGCAATCPSKKPYEEVTCCSTDKCNPHPKQRPG
B2: Long type neurotoxin I from cobra N. oxiana (natural protein)
chain: ITCYKTPIPITSETCAPGQNLCYTKTWCDAWCGSRGKVIELGCAATCPTVESYQDIKCCSTDDCNPHPKQKRP
B3: Tx-NM4 (natural protein)
chain: IRCFITPDVTSQICADGHVCYTKTWCDNFCASRGKRVDLGCAATCPTVKPGVNIKCCSTDNCNPFPTRNRP

What was measured:
Experiment in all cases: radioligand binding
[1] = molecular target: Acetylcholine binding protein from Aplysia californica (Aplysia californica)
[2] = molecular target: Acetylcholine binding protein from Lymnaea stagnalis (Lymnaea stagnalis) (UniProt P58154)
[3] = molecular target: Muscle-type nAChR from the electric organs of Torpedo californica (Torpedo californica (endogenous in electric organ))
human α7 nAChR (human) = human α7 nAChR (human) (UniProt P36544)
[4] = molecular target: T1, Acetylcholine binding protein from Lymnaea stagnalis (Lymnaea stagnalis, UniProt P58154 20-229); details: both partners purified
T1 construct: also called AChBP L. stagnalis; L. stagnalis AChBP

human α7 nAChR = molecular target: T2, human α7 nAChR (human, UniProt P36544 23-502); details: one partner purified
T2 construct: also called hα7 nAChR
T2 sequence (P36544 23-502): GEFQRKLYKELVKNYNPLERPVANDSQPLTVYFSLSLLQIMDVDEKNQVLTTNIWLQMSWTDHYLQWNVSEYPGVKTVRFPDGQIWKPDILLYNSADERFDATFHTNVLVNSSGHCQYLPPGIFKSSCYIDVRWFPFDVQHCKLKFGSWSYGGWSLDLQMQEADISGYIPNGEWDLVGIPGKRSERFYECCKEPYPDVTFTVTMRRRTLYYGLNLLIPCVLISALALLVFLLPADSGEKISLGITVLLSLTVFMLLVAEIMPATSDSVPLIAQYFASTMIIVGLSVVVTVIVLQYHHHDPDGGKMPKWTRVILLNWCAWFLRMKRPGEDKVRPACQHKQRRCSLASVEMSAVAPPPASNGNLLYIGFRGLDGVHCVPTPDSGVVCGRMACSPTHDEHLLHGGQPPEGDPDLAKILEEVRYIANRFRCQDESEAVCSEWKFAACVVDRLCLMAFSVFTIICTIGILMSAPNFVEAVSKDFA

| Molecule | IC50 [1] [nM] | IC50 [2] [nM] | IC50 [3] [nM] | IC50 (human α7 nAChR (human)) [nM] | IC50 [4] [nM] | IC50 (human α7 nAChR) [nM] |
| --- | --- | --- | --- | --- | --- | --- |
| α-bungarotoxin from krait Bungarus multicinctus venom (from UniProt P60615 22-95) (natural protein) | 155 |  |  |  |  |  |
| Tx-NM3-1 (from UniProt P01388 1-71) (natural protein) | 3200 | 203 | 1.61 | 4.84 |  |  |
| B1 |  |  |  |  | 17.2 ± 0.7 |  |
| B2 | 1200 |  |  |  | 73.4 ± 1.3 |  |
| B3 | 2350 |  | 2.17 |  | 1160 ± 40 | 26.9 |
